To fix the notation:
B1: Pistol ribozyme (parent)
chain: GGGUCGUUGUUCCAUAAUCGCGUGGAUAUGGCACGCAAGUUUCUACCGGGCACCGUAAAUGUCCGACUGGAGCCGUUCGGGCGGCUAUAAACAGACCUCAGGCCCGAAGCGUGGCGGCACCUGCCGCCGGUGGUAAAAAAGAUCGGAAGAGCACACGUCU

Variants of B1 are the subject of this data set. As to the kind of experiment: aptazyme ON/OFF ratio, guanine; higher = stronger switching; co-transcriptional cleavage with and without guanine.
For the variant GGGUCGAUCUCAGAUAAUCGCGUGGAUAUGGCACGCAAGUUUCUACCGGGCACCGUAAAUGUCCGACUGGAGCCGUUCGGGCGGCUAUAAACAGACCUCAGGCCCGAAGCGUGGCGGCACCUGCCGCCGGUGGUAAAAAAGAUCGGAAGAGCACACGUCU, the “aptazyme ON/OFF ratio” value is 1.05.
With GGGUCGAUCUCAUAUAAUCGCGUGGAUAUGGCACGCAAGUUUCUACCGGGCACCGUAAAUGUCCGACUGGAGCCGUUCGGGCGGCUAUAAACAGACCUCAGGCCCGAAGCGUGGCGGCACCUGCCGCCGGUGGUAAAAAAGAUCGGAAGAGCACACGUCU the figure was 1.08; with GGGUCGAUCUCAAAUAAUCGCGUGGAUAUGGCACGCAAGUUUCUACCGGGCACCGUAAAUGUCCGACUGGAGCCGUUCGGGCGGCUAUAAACAGACCUCAGGCCCGAAGCGUGGCGGCACCUGCCGCCGGUGGUAAAAAAGAUCGGAAGAGCACACGUCU, 1.06; with GGGUCGAUUUUCCAUAAUCGCGUGGAUAUGGCACGCAAGUUUCUACCGGGCACCGUAAAUGUCCGACUGGAGCCGUUCGGGCGGCUAUAAACAGACCUCAGGCCCGAAGCGUGGCGGCACCUGCCGCCGGUGGUAAAAAAGAUCGGAAGAGCACACGUCU, 1.86.
With GGGUCGAUCUCGCAUAAUCGCGUGGAUAUGGCACGCAAGUUUCUACCGGGCACCGUAAAUGUCCGACUGGAGCCGUUCGGGCGGCUAUAAACAGACCUCAGGCCCGAAGCGUGGCGGCACCUGCCGCCGGUGGUAAAAAAGAUCGGAAGAGCACACGUCU the figure was 1.06; with GGGUCGAUCUCACAUAAUCGCGUGGAUAUGGCACGCAAGUUUCUACCGGGCACCGUAAAUGUCCGACUGGAGCCGUUCGGGCGGCUAUAAACAGACCUCAGGCCCGAAGCGUGGCGGCACCUGCCGCCGGUGGUAAAAAAGAUCGGAAGAGCACACGUCU, 1.09.
With GGGUCGAUCUCUCAUAAUCGCGUGGAUAUGGCACGCAAGUUUCUACCGGGCACCGUAAAUGUCCGACUGGAGCCGUUCGGGCGGCUAUAAACAGACCUCAGGCCCGAAGCGUGGCGGCACCUGCCGCCGGUGGUAAAAAAGAUCGGAAGAGCACACGUCU the figure was 1.09.
With GGGUCGAUCUGACAUAAUCGCGUGGAUAUGGCACGCAAGUUUCUACCGGGCACCGUAAAUGUCCGACUGGAGCCGUUCGGGCGGCUAUAAACAGACCUCAGGCCCGAAGCGUGGCGGCACCUGCCGCCGGUGGUAAAAAAGAUCGGAAGAGCACACGUCU, the “aptazyme ON/OFF ratio” value turned out to be 1.19.
Regarding GGGUCGAUCUGUCAUAAUCGCGUGGAUAUGGCACGCAAGUUUCUACCGGGCACCGUAAAUGUCCGACUGGAGCCGUUCGGGCGGCUAUAAACAGACCUCAGGCCCGAAGCGUGGCGGCACCUGCCGCCGGUGGUAAAAAAGAUCGGAAGAGCACACGUCU, the “aptazyme ON/OFF ratio” value came out at 1.57.
With GGGUCGAUCUGGCAUAAUCGCGUGGAUAUGGCACGCAAGUUUCUACCGGGCACCGUAAAUGUCCGACUGGAGCCGUUCGGGCGGCUAUAAACAGACCUCAGGCCCGAAGCGUGGCGGCACCUGCCGCCGGUGGUAAAAAAGAUCGGAAGAGCACACGUCU the figure was 1.36; with GGGUCGAUCUCCGAUAAUCGCGUGGAUAUGGCACGCAAGUUUCUACCGGGCACCGUAAAUGUCCGACUGGAGCCGUUCGGGCGGCUAUAAACAGACCUCAGGCCCGAAGCGUGGCGGCACCUGCCGCCGGUGGUAAAAAAGAUCGGAAGAGCACACGUCU, 1.04; with GGGUCGAUCUCCAAUAAUCGCGUGGAUAUGGCACGCAAGUUUCUACCGGGCACCGUAAAUGUCCGACUGGAGCCGUUCGGGCGGCUAUAAACAGACCUCAGGCCCGAAGCGUGGCGGCACCUGCCGCCGGUGGUAAAAAAGAUCGGAAGAGCACACGUCU, 1.04.
In the case of GGGUCGAUCUCCUAUAAUCGCGUGGAUAUGGCACGCAAGUUUCUACCGGGCACCGUAAAUGUCCGACUGGAGCCGUUCGGGCGGCUAUAAACAGACCUCAGGCCCGAAGCGUGGCGGCACCUGCCGCCGGUGGUAAAAAAGAUCGGAAGAGCACACGUCU it was 1.02.
With GGGUCGAUCUCCCAUAAUCGCGUGGAUAUGGCACGCAAGUUUCUACCGGGCACCGUAAAUGUCCGACUGGAGCCGUUCGGGCGGCUAUAAACAGACCUCAGGCCCGAAGCGUGGCGGCACCUGCCGCCGGUGGUAAAAAAGAUCGGAAGAGCACACGUCU the figure was 1.07; with GGGUCGAUCUGCCAUAAUCGCGUGGAUAUGGCACGCAAGUUUCUACCGGGCACCGUAAAUGUCCGACUGGAGCCGUUCGGGCGGCUAUAAACAGACCUCAGGCCCGAAGCGUGGCGGCACCUGCCGCCGGUGGUAAAAAAGAUCGGAAGAGCACACGUCU, 1.41; with GGGUCGAUCUGGUAUAAUCGCGUGGAUAUGGCACGCAAGUUUCUACCGGGCACCGUAAAUGUCCGACUGGAGCCGUUCGGGCGGCUAUAAACAGACCUCAGGCCCGAAGCGUGGCGGCACCUGCCGCCGGUGGUAAAAAAGAUCGGAAGAGCACACGUCU, 1.12.
GGGUCGAUCUGGAAUAAUCGCGUGGAUAUGGCACGCAAGUUUCUACCGGGCACCGUAAAUGUCCGACUGGAGCCGUUCGGGCGGCUAUAAACAGACCUCAGGCCCGAAGCGUGGCGGCACCUGCCGCCGGUGGUAAAAAAGAUCGGAAGAGCACACGUCU: the “aptazyme ON/OFF ratio” value amounted to 1.16.
Regarding GGGUCGAUCUGGGAUAAUCGCGUGGAUAUGGCACGCAAGUUUCUACCGGGCACCGUAAAUGUCCGACUGGAGCCGUUCGGGCGGCUAUAAACAGACCUCAGGCCCGAAGCGUGGCGGCACCUGCCGCCGGUGGUAAAAAAGAUCGGAAGAGCACACGUCU, the “aptazyme ON/OFF ratio” value came out at 1.14.
With GGGUCGAUUUUACAUAAUCGCGUGGAUAUGGCACGCAAGUUUCUACCGGGCACCGUAAAUGUCCGACUGGAGCCGUUCGGGCGGCUAUAAACAGACCUCAGGCCCGAAGCGUGGCGGCACCUGCCGCCGGUGGUAAAAAAGAUCGGAAGAGCACACGUCU the figure was 0.896; with GGGUCGAUCUCUUAUAAUCGCGUGGAUAUGGCACGCAAGUUUCUACCGGGCACCGUAAAUGUCCGACUGGAGCCGUUCGGGCGGCUAUAAACAGACCUCAGGCCCGAAGCGUGGCGGCACCUGCCGCCGGUGGUAAAAAAGAUCGGAAGAGCACACGUCU, 1.16.
In the case of GGGUCGAUCUCUGAUAAUCGCGUGGAUAUGGCACGCAAGUUUCUACCGGGCACCGUAAAUGUCCGACUGGAGCCGUUCGGGCGGCUAUAAACAGACCUCAGGCCCGAAGCGUGGCGGCACCUGCCGCCGGUGGUAAAAAAGAUCGGAAGAGCACACGUCU it was 1.12; in that of GGGUCGAUCUCUAAUAAUCGCGUGGAUAUGGCACGCAAGUUUCUACCGGGCACCGUAAAUGUCCGACUGGAGCCGUUCGGGCGGCUAUAAACAGACCUCAGGCCCGAAGCGUGGCGGCACCUGCCGCCGGUGGUAAAAAAGAUCGGAAGAGCACACGUCU, 1.04; in that of GGGUCGAUCUGAAAUAAUCGCGUGGAUAUGGCACGCAAGUUUCUACCGGGCACCGUAAAUGUCCGACUGGAGCCGUUCGGGCGGCUAUAAACAGACCUCAGGCCCGAAGCGUGGCGGCACCUGCCGCCGGUGGUAAAAAAGAUCGGAAGAGCACACGUCU, 1.1.
With GGGUCGAUCUGAGAUAAUCGCGUGGAUAUGGCACGCAAGUUUCUACCGGGCACCGUAAAUGUCCGACUGGAGCCGUUCGGGCGGCUAUAAACAGACCUCAGGCCCGAAGCGUGGCGGCACCUGCCGCCGGUGGUAAAAAAGAUCGGAAGAGCACACGUCU the figure was 1.14; with GGGUCGAUCUGAUAUAAUCGCGUGGAUAUGGCACGCAAGUUUCUACCGGGCACCGUAAAUGUCCGACUGGAGCCGUUCGGGCGGCUAUAAACAGACCUCAGGCCCGAAGCGUGGCGGCACCUGCCGCCGGUGGUAAAAAAGAUCGGAAGAGCACACGUCU, 1.29; with GGGUCGAUCUGUAAUAAUCGCGUGGAUAUGGCACGCAAGUUUCUACCGGGCACCGUAAAUGUCCGACUGGAGCCGUUCGGGCGGCUAUAAACAGACCUCAGGCCCGAAGCGUGGCGGCACCUGCCGCCGGUGGUAAAAAAGAUCGGAAGAGCACACGUCU, 1.42.
As for GGGUCGAUCUGUUAUAAUCGCGUGGAUAUGGCACGCAAGUUUCUACCGGGCACCGUAAAUGUCCGACUGGAGCCGUUCGGGCGGCUAUAAACAGACCUCAGGCCCGAAGCGUGGCGGCACCUGCCGCCGGUGGUAAAAAAGAUCGGAAGAGCACACGUCU, the “aptazyme ON/OFF ratio” value was found to be 1.32.
In the case of GGGUCGAUCUGUGAUAAUCGCGUGGAUAUGGCACGCAAGUUUCUACCGGGCACCGUAAAUGUCCGACUGGAGCCGUUCGGGCGGCUAUAAACAGACCUCAGGCCCGAAGCGUGGCGGCACCUGCCGCCGGUGGUAAAAAAGAUCGGAAGAGCACACGUCU it was 1.36.
With GGGUCGAUCUCGAAUAAUCGCGUGGAUAUGGCACGCAAGUUUCUACCGGGCACCGUAAAUGUCCGACUGGAGCCGUUCGGGCGGCUAUAAACAGACCUCAGGCCCGAAGCGUGGCGGCACCUGCCGCCGGUGGUAAAAAAGAUCGGAAGAGCACACGUCU the figure was 1.07; with GGGUCGAUCUCGUAUAAUCGCGUGGAUAUGGCACGCAAGUUUCUACCGGGCACCGUAAAUGUCCGACUGGAGCCGUUCGGGCGGCUAUAAACAGACCUCAGGCCCGAAGCGUGGCGGCACCUGCCGCCGGUGGUAAAAAAGAUCGGAAGAGCACACGUCU, 1.09; with GGGUCGAUCUCGGAUAAUCGCGUGGAUAUGGCACGCAAGUUUCUACCGGGCACCGUAAAUGUCCGACUGGAGCCGUUCGGGCGGCUAUAAACAGACCUCAGGCCCGAAGCGUGGCGGCACCUGCCGCCGGUGGUAAAAAAGAUCGGAAGAGCACACGUCU, 1.09.
GGGUCGAUCUGCGAUAAUCGCGUGGAUAUGGCACGCAAGUUUCUACCGGGCACCGUAAAUGUCCGACUGGAGCCGUUCGGGCGGCUAUAAACAGACCUCAGGCCCGAAGCGUGGCGGCACCUGCCGCCGGUGGUAAAAAAGAUCGGAAGAGCACACGUCU: the “aptazyme ON/OFF ratio” value is 1.07.
In the case of GGGUCGAUCUGCAAUAAUCGCGUGGAUAUGGCACGCAAGUUUCUACCGGGCACCGUAAAUGUCCGACUGGAGCCGUUCGGGCGGCUAUAAACAGACCUCAGGCCCGAAGCGUGGCGGCACCUGCCGCCGGUGGUAAAAAAGAUCGGAAGAGCACACGUCU it was 1.13; in that of GGGUCGAUCUGCUAUAAUCGCGUGGAUAUGGCACGCAAGUUUCUACCGGGCACCGUAAAUGUCCGACUGGAGCCGUUCGGGCGGCUAUAAACAGACCUCAGGCCCGAAGCGUGGCGGCACCUGCCGCCGGUGGUAAAAAAGAUCGGAAGAGCACACGUCU, 1.25; in that of GGGUCGAUUUUAGAUAAUCGCGUGGAUAUGGCACGCAAGUUUCUACCGGGCACCGUAAAUGUCCGACUGGAGCCGUUCGGGCGGCUAUAAACAGACCUCAGGCCCGAAGCGUGGCGGCACCUGCCGCCGGUGGUAAAAAAGAUCGGAAGAGCACACGUCU, 1.21.
In the case of GGGUCGAUUUUAAAUAAUCGCGUGGAUAUGGCACGCAAGUUUCUACCGGGCACCGUAAAUGUCCGACUGGAGCCGUUCGGGCGGCUAUAAACAGACCUCAGGCCCGAAGCGUGGCGGCACCUGCCGCCGGUGGUAAAAAAGAUCGGAAGAGCACACGUCU it was 1.27.

The record behind these values is the RNAGym collection of RNA variant scans (doi:10.1021/acssynbio.7b00057).
